Test results taken from PMC3232246.

Target: EGFP-tagged Rac1-Y64F (human), P63000
Assay: co-IP; MEF co-transfected with an EGFP-Rac1 construct and Flag-βPIX, Myc-Tiam1 or Myc-RhoGDI; modified RIPA buffer; 800 µg lysate, anti-GFP antibody and protein A sepharose, 4 °C; blots with anti-Flag or anti-Myc, normalised to the precipitated EGFP-Rac1
Conditions: remark: other sources report otherwise

percent drop in binding against wild type: > 50%
B1: Myc-tagged RhoGDI, P52565 1-204 (natural protein)
chain: MAEQEPTAEQLAQIAAENEEDEHSVNYKPPAQKSIQEIQELDKDDESLRKYKEALLGRVAVSADPNVPNVVVTGLTLVCSSAPGPLELDLTGDLESFKKQSFVLKEGVEYRIKISFRVNREIVSGMKYIQHTYRKGVKIDKTDYMVGSYGPRAEEYEFLTPVEEAPKGMLARGSYSIKSRFTDDDKTDHLSWEWNLTIKKDWKD
